Measurements reported in patent publication US20220267443A1 (AGENUS, published 2022).

T1: recombinant human CTLA-4-Fc (R&D Systems, #7268-CT) (human, UniProt P16410 36-161)
T1 construct: Bought protein; also called rhCTLA-4-Fc; CTLA-4 antigen; not shown: Fc part of the bought fusion protein
T1 sequence: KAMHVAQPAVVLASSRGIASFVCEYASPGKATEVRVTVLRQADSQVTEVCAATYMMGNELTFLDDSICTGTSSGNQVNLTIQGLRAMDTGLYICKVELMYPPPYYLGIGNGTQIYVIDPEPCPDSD

B1: AGEN1896 (antibody, V domains shown)
VH: EVQLLESGGGLVKPGGSLRLSCAASGFTFSSYSMNWVRQAPGKGLEWVSSISSSSSYIYYADSVKGRFTISRDNAKNSLYLQMNSLRAEDTAVYYCARVGLMGPFDIWGQGTMVTVSS
VL: EIVLTQSPATLSFSPGERATLSCRASQSVSSYLAWYQQKPGQAPRLLIYGASSRATGIPDRFSGSGSGTDFTFTISRLEPEDFAVYYCQQYGSSPFTFGPGTKVDIK
B2: AGEN1897 (antibody, V domains shown)
VH: EVQLLESGGGLVQPGGSLRLSCAASGFTFSSYAMSWVRQAPGKGLVWVSSISSSSSYIYYADSVKGRFTISRDNAKNSLYLQMNSLRAEDTAVYYCARVGLMGPFNIWGQGTMVTVSS
VL: EIVLTQSPGTLSLSPGERATLSCRASQSVSRYLGWYQQKPGQAPRLLIYGASTRATGIPDRFSGSGSGTDFTLTITRLEPEDFAVYYCQQYGSSPWTFGQGTKVEIK
B3: AGEN1898 (antibody, V domains shown)
VH: EVQLLESGGGLVQPGGSLRLSCAASGFTFSSYAMSWVRQAPGKGLVWVSSISSSSSYIYYADSVKGRFTISRDNAKNSLYLQMNSLRAEDTAVYYCARVGLMGPFNIWGQGTMVTVSS
VL: EIVLTQSPATLSLSPGERATLSCRASQSVSSYLAWYQQKPGQAPSLLIYATSSRATGIPDRFSGSVSGTDFTLTISRLEPEDFAVYYCQQYGTSPWTFGQGTKVEIK
B4: AGEN1901 (antibody, V domains shown)
VH: EVQLVESGGGLVQPGGSLTLSCAASGFTFSSYSMNWVRQAPGKGLEWVSSISSSSSYIYYADSVKGRFTISRDNAKNSLYLQMNSLRAEDTAVYYCARVGLMGPFDIWGQGTMVTVSS
VL: EIVLTQSPATLSLSPGERATLSCRASQSVGTYLAWYQHKVGQAPRLLIYGASRRATGIPDRFSGSGSGTDFTLTISRLEPEDFAVYYCQQYGSSPWTFGQGTKVEIK
B5: AGEN1887 (antibody, V domains shown)
VH: EVQLLESGGGLVQPGGSLRLSCAASGFTFSSYAMSWVRQAPGKGLVWVSSISSSSSYIYYADSVKGRFTISRDNAKNSLYLQMNSLRAEDTAVYYCARVGLMGPFDIWGQGTMVTVSS
VL: EIVLTQSPGTLSLSPGERATLSCRASQSVSRYLGWYQQKPGQAPRLLIYGASTRATGIPDRFSGSGSGTDFTLTITRLEPEDFAVYYCQQYGSSPWTFGQGTKVEIK
B6: AGEN1889 (antibody, V domains shown)
VH: EVQLVESGGGLVKPGGSLRLSCAASGFTFSSYSMNWVRQAPGKGLEWVSSISSSSSYIYYADSVKGRFTISRDNAKNTLYLQMNSLRAEDTAVYYCARVGLMGPFDIWGQGTMVTVSS
VL: EIVLTQSPATLSLSPGERATLSCRASQSVGTYLAWYQHKVGQAPRLLIYGASRRATGIPDRFSGSGSGTDFTLTISRLEPEDFAVYYCQQYGSSPWTFGQGTKVEIK
B7: AGEN1895 (antibody, V domains shown)
VH: EVQLLESGGGLVKPGGSLRLSCAASGFTFSSYSMNWVRQAPGKGLEWVSSISSSSSYIYYADSVKGRFTISRDNAKNSLYLQMNSLRAEDTAVYYCARVGLMGPFDIWGQGTMVTVSS
VL: EIVLTQSPATLSLSPGERATLSCRASQSVSSYLAWYQQKPGQAPSLLIYATSSRATGIPDRFSGSVSGTDFTLTISRLEPEDFAVYYCQQYGTSPWTFGQGTKVEIK
B8: AGEN1886 (antibody, V domains shown)
VH: EVQLVESGGGLVKPGGSLRLSCAASGFTFSSYSMNWVRQAPGKGLEWVSSISSSSSYIYYADSVKGRFTISRDNAKNSLYLQMNSLRAEDTAVYYCARVGLMGPFDIWGQGTMVTVSS
VL: EIVLTQSPATLSFSPGERATLSCRASQSVSSYLAWYQQKPGQAPRLLIYGASSRATGIPDRFSGSGSGTDFTFTISRLEPEDFAVYYCQQYGSSPFTFGPGTKVDIK
B9: AGEN1899 (antibody, V domains shown)
VH: EVQLLESGGGLVQPGGSLRLSCAASGFTFSSYAMSWVRQAPGKGLVWVSSISSSSSYIYYADSVKGRFTISRDNAKNSLYLQMNSLRAEDTAVYYCARVGLMGPFNIWGQGTMVTVSS
VL: EIVLTQSPATLSFSPGERATLSCRASQSVSSYLAWYQQKPGQAPRLLIYGASSRATGIPDRFSGSGSGTDFTFTISRLEPEDFAVYYCQQYGSSPFTFGPGTKVDIK
B10: AGEN1891 (antibody, V domains shown)
VH: EVQLVESGGGLVKPGGSLRLSCAASGFTFSSYSMNWVRQAPGKGLEWVSSISSSSSYIYYADSVKGRFTISRDNAKNTLYLQMNSLRAEDTAVYYCARVGLMGPFDIWGQGTMVTVSS
VL: EIVLTQSPATLSVSPGERATLSCRASQSVSSYLAWYQQKPGQAPRLLIYAASTRATGIPDRFSGSASGTDFTLTISRLEPEDFAVYYCQQYGSSPWTFGQGTKVEIK
B11: AGEN1885 (antibody, V domains shown)
VH: EVQLVESGGGLVKPGGSLRLSCAASGFTFSSYSMNWVRQAPGKGLEWVSSISSSSSYIYYADSVKGRFTISRDNAKNSLYLQMNSLRAEDTAVYYCARVGLMGPFDIWGQGTMVTVSS
VL: EIVLTQSPATLSLSPGERATLSCRASQSVSSYLAWYQQKPGQAPSLLIYATSSRATGIPDRFSGSVSGTDFTLTISRLEPEDFAVYYCQQYGTSPWTFGQGTKVEIK
B12: AGEN1900 (antibody, V domains shown)
VH: EVQLLESGGGLVQPGGSLRLSCAASGFTFSSYAMSWVRQAPGKGLVWVSSISSSSSYIYYADSVKGRFTISRDNAKNSLYLQMNSLRAEDTAVYYCARVGLMGPFNIWGQGTMVTVSS
VL: EIVLTQSPATLSLSPGERATLSCRASQSVSSYLAWYQQKPGQAPRLLIYGASNRATGIPARFSGSGSGTDFTLTISSLEPEDFAVYYCQQYGSSPFTFGPGTKVDIK
B13: AGEN1902 (antibody, V domains shown)
VH: EVQLVESGGGLVQPGGSLTLSCAASGFTFSSYSMNWVRQAPGKGLEWVSSISSSSSYIYYADSVKGRFTISRDNAKNSLYLQMNSLRAEDTAVYYCARVGLMGPFDIWGQGTMVTVSS
VL: EIVLTQSPATLSFSPGERATLSCRASQSVSSYLAWYQQKPGQAPRLLIYGASSRATGIPDRFSGSGSGTDFTFTISRLEPEDFAVYYCQQYGSSPFTFGPGTKVDIK
B14: AGEN1892 (antibody, V domains shown)
VH: EVQLVESGGGLVKPGGSLRLSCAASGFTFSSYSMNWVRQAPGKGLEWVSSISSSSSYIYYADSVKGRFTISRDNAKNTLYLQMNSLRAEDTAVYYCARVGLMGPFDIWGQGTMVTVSS
VL: EIVLTQSPATLSLSPGERATLSCRASQSVSSYLAWYQQKPGQAPRLLIYGASNRATGIPARFSGSGSGTDFTLTISSLEPEDFAVYYCQQYGSSPFTFGPGTKVDIK
B15: AGEN1893 (antibody, V domains shown)
VH: EVQLLESGGGLVKPGGSLRLSCAASGFTFSSYSMNWVRQAPGKGLEWVSSISSSSSYIYYADSVKGRFTISRDNAKNSLYLQMNSLRAEDTAVYYCARVGLMGPFDIWGQGTMVTVSS
VL: EIVLTQSPATLSLSPGERATLSCRASQSVGTYLAWYQHKVGQAPRLLIYGASRRATGIPDRFSGSGSGTDFTLTISRLEPEDFAVYYCQQYGSSPWTFGQGTKVEIK
B16: AGEN1890 (antibody, V domains shown)
VH: EVQLVESGGGLVKPGGSLRLSCAASGFTFSSYSMNWVRQAPGKGLEWVSSISSSSSYIYYADSVKGRFTISRDNAKNTLYLQMNSLRAEDTAVYYCARVGLMGPFDIWGQGTMVTVSS
VL: EIVLTQSPATLSFSPGERATLSCRASQSVSSYLAWYQQKPGQAPRLLIYGASSRATGIPDRFSGSGSGTDFTFTISRLEPEDFAVYYCQQYGSSPFTFGPGTKVDIK
B17: AGEN1888 (antibody, V domains shown)
VH: EVQLLESGGGLVQPGGSLRLSCAASGFTFSSYAMSWVRQAPGKGLVWVSSISSSSSYIYYADSVKGRFTISRDNAKNSLYLQMNSLRAEDTAVYYCARVGLMGPFDIWGQGTMVTVSS
VL: EIVLTQSPATLSFSPGERATLSCRASQSVSSYLAWYQQKPGQAPRLLIYGASSRATGIPDRFSGSGSGTDFTFTISRLEPEDFAVYYCQQYGSSPFTFGPGTKVDIK

biological target: T1, recombinant human CTLA-4-Fc (R&D …); assay: surface plasmon resonance, antibody captured on CM5 chip, rhCTLA-4-Fc in solution
Description: To detect nonspecific interactions of the CTLA-4 antigen, antibody capture was only performed in flow cell 2, whereas in flow cell 1 only the capturing antibody was immobilized. After capture of the anti-CTLA-4 antibodies, the CTLA-4 antigens were run through both flow cells in different amounts. Specifically, recombinant human CTLA-4-Fc (R&D Systems, #7268-CT), recombinant human CTLA-4 (Sino Biological, #11159-H08H), recombinant cynomolgus CTLA-4-Fc (Sino Biological, #90213-C02H), and recombinant cynomolgus CTLA-4 (Sino Biological, #90213-C08H) were run at 100 nM, 25 nM, and 6.25 nM; and recombinant mouse CTLA-4-Fc (R&D, # 434-CT), recombinant rat CTLA-4-Fc (Sino Biological, #81069-RO2H), and recombinant rat CTLA-4 (Sino Biological, #81069-R08H) were run at 400 nM, 100 nM, and 25 nM. A blank curve (running buffer only) was also included in each run. Association was run for 90 seconds and dissociation for 600 seconds with a flow rate of 10 μl/min. After each run a regeneration step was performed with 10 mM Glycine pH 2.0 (GE Healthcare, BR-1003-55) for 60 seconds with 30 μl/min. Binding curves were evaluated using BIAcore® T200 evaluation software version 2.0.1 applying a Langmuir 1:1 model with global fit of Rmax. From these values the affinities (KD) of AGEN1884 and the reference anti-CTLA-4 antibody for various antigens were calculated and shown in FIG. 1A. The recombinant monomeric cynomolgus CTLA-4, mouse CTLA-4-Fc, and monomeric rat CTLA-4 used in this study failed quality control assessment. […] The surface plasmon resonance analysis was later repeated twice using recombinant mouse CTLA-4-Fc (Sino Biological, #81069-R02H) that passed a quality control assessment at 360 nM, 120 nM, 40 nM, and 13.3 nM for AGEN1884w.
The affinity of the 19 anti-CTLA-4 antibodies described above was analyzed by surface plasmon resonance in an assay similar to the one described in Section 6.1.1. The CTLA-4 antigen tested was recombinant human CTLA-4-Fc (R&D Systems, #7268-CT). The anti-CTLA-4 antibodies (6 μg/ml in running buffer) were captured to the chip surface of a CMS sensor chip.

Binding result, binds:
B1
B2
B3
B4
B5
B6
B7
B8
B9
B10
B11
B12
B13
B14
B15
B16
B17
